Assay results published in patent US20220288067A1 (University of Pennsylvania, published 2022).

Assays:
[1] = molecular target: T1, mutant MED1-peptide SPAYAPQNLD
T1 chain: SPAYAPQNLD

[2] = molecular target: T2, wild type MED1-peptide SPAYTPQNLD
T2 chain: SPAYTPQNLD

[3] = molecular target: T3, Human Recombinant GST-MED1 protein (aa1391-1490), Q15648
T3 chain: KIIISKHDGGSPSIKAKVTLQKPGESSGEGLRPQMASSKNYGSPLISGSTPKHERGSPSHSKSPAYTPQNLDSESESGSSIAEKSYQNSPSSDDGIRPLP

[4] = molecular target: T4, MED1 (endogenous, phosphorylated upon DHT stimulation) (Homo sapiens, UniProt Q15648 1-1581, phosphothreonine at T1457 and T1032 (DHT-induced)); experiment: reciprocal co-immunoprecipitation from LNCaP and VCaP nuclear lysates with MED1 and CDK7 antibodies (FIGS. 5c, 5d)
T4 construct: Endogenous protein immunoprecipitated with an anti-MED1 antibody (Bethyl A300-793A) from nuclear extracts; also called p-MED1; TRAP220
T4 sequence (Q15648 whole entry): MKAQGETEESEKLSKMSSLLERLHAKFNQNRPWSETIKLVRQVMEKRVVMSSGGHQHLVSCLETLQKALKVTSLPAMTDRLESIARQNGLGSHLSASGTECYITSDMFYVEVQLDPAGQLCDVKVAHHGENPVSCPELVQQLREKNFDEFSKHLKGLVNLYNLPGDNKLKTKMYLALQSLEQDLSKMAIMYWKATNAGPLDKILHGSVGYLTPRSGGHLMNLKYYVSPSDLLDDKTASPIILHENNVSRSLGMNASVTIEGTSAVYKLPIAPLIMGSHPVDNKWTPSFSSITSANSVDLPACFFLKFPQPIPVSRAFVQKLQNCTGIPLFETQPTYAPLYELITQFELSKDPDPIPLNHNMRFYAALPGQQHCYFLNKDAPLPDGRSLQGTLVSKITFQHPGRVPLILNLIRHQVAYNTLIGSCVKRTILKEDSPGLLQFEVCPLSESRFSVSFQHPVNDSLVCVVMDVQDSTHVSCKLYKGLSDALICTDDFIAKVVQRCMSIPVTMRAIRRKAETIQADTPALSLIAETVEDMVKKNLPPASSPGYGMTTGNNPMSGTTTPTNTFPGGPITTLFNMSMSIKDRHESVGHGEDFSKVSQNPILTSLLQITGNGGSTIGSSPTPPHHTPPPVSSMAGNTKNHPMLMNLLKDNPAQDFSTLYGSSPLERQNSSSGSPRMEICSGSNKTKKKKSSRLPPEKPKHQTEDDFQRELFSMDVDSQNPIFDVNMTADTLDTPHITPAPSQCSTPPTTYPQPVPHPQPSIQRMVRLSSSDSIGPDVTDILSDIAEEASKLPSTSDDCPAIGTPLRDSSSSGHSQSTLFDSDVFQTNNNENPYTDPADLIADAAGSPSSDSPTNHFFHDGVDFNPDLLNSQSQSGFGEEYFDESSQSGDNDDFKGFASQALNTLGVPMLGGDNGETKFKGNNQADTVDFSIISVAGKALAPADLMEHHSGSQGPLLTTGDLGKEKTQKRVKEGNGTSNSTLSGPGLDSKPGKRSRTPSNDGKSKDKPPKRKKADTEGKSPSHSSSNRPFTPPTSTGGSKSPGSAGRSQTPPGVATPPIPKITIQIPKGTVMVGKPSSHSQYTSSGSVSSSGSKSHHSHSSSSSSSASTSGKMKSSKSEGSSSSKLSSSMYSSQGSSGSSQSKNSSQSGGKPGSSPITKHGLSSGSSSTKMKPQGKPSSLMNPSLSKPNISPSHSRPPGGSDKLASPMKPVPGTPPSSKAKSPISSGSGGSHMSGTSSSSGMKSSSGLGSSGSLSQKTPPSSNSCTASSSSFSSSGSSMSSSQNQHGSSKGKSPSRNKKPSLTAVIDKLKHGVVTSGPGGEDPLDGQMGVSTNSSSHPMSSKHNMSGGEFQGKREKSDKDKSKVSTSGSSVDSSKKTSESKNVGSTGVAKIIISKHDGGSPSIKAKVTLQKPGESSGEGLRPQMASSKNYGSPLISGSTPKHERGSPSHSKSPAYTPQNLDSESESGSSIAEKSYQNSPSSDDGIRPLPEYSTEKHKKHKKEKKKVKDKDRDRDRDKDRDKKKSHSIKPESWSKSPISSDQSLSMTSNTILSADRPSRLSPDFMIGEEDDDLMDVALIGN

B1: CAK complex-CDK7/CyclinH/MAT1 enzyme (recombinant, BPS Bioscience) (protein)
chain 1: ALDVKSRAKRYEKLDFLGEGQFATVYKARDKNTNQIVAIKKIKLGHRSEAKDGINRTALREIKLLQELSHPNIIGLLDAFGHKSNISLVFDFMETDLEVIIKDNSLVLTPSHIKAYMLMTLQGLEYLHQHWILHRDLKPNNLLLDENGVLKLADFGLAKSFGSPNRAYTHQVVTRWYRAPELLFGARMYGVGVDMWAVGCILAELLLRVPFLPGDSDLDQLTRIFETLGTPTEEQWPDMCSLPDYVTFKSFPGIPLHHIFSAAGDDLLDLIQGLFLFNPCARITATQALKMKYFSNRPGPTPGCQLPRPNCPVETLKEQSNPALAIKRKRTEALEQGGLPKKLIF
chain 2: YHNSSQKRHWTFSSEEQLARLRADANRKFRCKAVANGKVLPNDPVFLEPHEEMTLCKYYEKRLLEFCSVFKPAMPRSVVGTACMYFKRFYLNNSVMEYHPRIIMLTCAFLACKVDEFNVSSPQFVGNLRESPLGQEKALEQILEYELLLIQQLNFHLIVHNPYRPFEGFLIDLKTRYPILENPEILRKTADDFLNRIALTDAYLLYTPSQIALTAILSSASRAGITMESYLSESLMLKENRTCLSQLLDIMKSMRNLVKKYEPPRSEEVAVLKQKLERCHSAELALNVITKKRKGYEDDDYVSKKSKHEEEEWTDDDLVESL
chain 3: DDQGCPRCKTTKYRNPSLKLMVNVCGHTLCESCVDLLFVRGAGNCPECGTPLRKSNFRVQLFEDPTVDKEVEIRKKVLKIYNKREEDFPSLREYNDFLEEVEEIVFNLTNNVDLDNTKKKMEIYQKENKDVIQKNKLKLTREQEELEEALEVERQENEQRRLFIQKEEQLQQILKRKNKQAFLDELESSDLPVALLLAQHKDRSTQLEMQLEKPKPVKPVTFSTGIKMGQHISLAPIHKLEEALYEYQPLQIETYGPHVPELEMLGRLGYLNHVRAASPQDLAGGYTSSLACHRALQDAFSGLFWQPS
[1]
  luminescence based kinase assay (ADP-Glo): CDK7 exhibited no activity towards the T1457A mutant peptide
[2]
  luminescence based kinase assay (ADP-Glo): CDK7-mediated phosphorylation of the T1457 wildtype peptide was inhibited by THZ1 treatment in a dose-dependent manner
[3]
  in vitro kinase assay, immunoblot of the reaction mixtures: we observed Threonine phosphorylation, specifically at T1457, which was completely inhibited by THZ1

B2: CDK7 (endogenous) (enzyme, human, UniProt P50613 2-346, looked up)
chain: ALDVKSRAKRYEKLDFLGEGQFATVYKARDKNTNQIVAIKKIKLGHRSEAKDGINRTALREIKLLQELSHPNIIGLLDAFGHKSNISLVFDFMETDLEVIIKDNSLVLTPSHIKAYMLMTLQGLEYLHQHWILHRDLKPNNLLLDENGVLKLADFGLAKSFGSPNRAYTHQVVTRWYRAPELLFGARMYGVGVDMWAVGCILAELLLRVPFLPGDSDLDQLTRIFETLGTPTEEQWPDMCSLPDYVTFKSFPGIPLHHIFSAAGDDLLDLIQGLFLFNPCARITATQALKMKYFSNRPGPTPGCQLPRPNCPVETLKEQSNPALAIKRKRTEALEQGGLPKKLIF
notes: Detected or immunoprecipitated with anti-CDK7 (Cell Signaling 2916s); also called cyclin-dependent-kinase 7
[4]
  binding result: binds
